Experimental data as given in the supplement of paper PMC11246515.
± gives the standard deviation of the averaged measurements.

Assay: total protein half-life in vivo (active degradation + dilution); higher = more stable protein
[1] = E. coli NCM3722 delta-clpP, growth: N-lim chemostat, doubling time 6 h
[2] = E. coli NCM3722 delta-hslV, growth: N-lim chemostat, doubling time 6 h
[3] = E. coli NCM3722 delta-lon, growth: N-lim chemostat, doubling time 6 h
[4] = E. coli NCM3722 delta-smpB, growth: N-lim chemostat, doubling time 6 h
[5] = wild type E. coli NCM3722, growth: C-lim chemostat, doubling time 3 h
[6] = wild type E. coli NCM3722, growth: C-lim chemostat, doubling time 12 h
[7] = wild type E. coli NCM3722, growth: N-lim chemostat, doubling time 6 h
[8] = wild type E. coli NCM3722, growth: N-lim chemostat, doubling time 12 h
[9] = wild type E. coli NCM3722, growth: P-lim chemostat, doubling time 6 h
[10] = E. coli NCM3722 delta-clpP delta-lon delta-hslV, growth: N-lim chemostat, doubling time 6 h
[11] = wild type E. coli NCM3722, growth: C-lim chemostat, doubling time 6 h
[12] = wild type E. coli NCM3722, growth: P-lim chemostat, doubling time 12 h

Sequence | total protein half-life in vivo [1] | total protein half-life in vivo [2] | total protein half-life in vivo [3] | total protein half-life in vivo [4] | total protein half-life in vivo [5] | total protein half-life in vivo [6] | total protein half-life in vivo [7] | total protein half-life in vivo [8] | total protein half-life in vivo [9] | total protein half-life in vivo [10] | total protein half-life in vivo [11] | total protein half-life in vivo [12]
MKQTVYIASPESQQIHVWNLNHEGALTLTQVVDVPGQVQPMVVSPDKRYLYVGVRPEFRVLAYRIAPDDGALTFAAESALPGSPTHISTDHQGQFVFVGSYNAGNVSVTRLEDGLPVGVVDVVEGLDGCHSANISPDNRTLWVPALKQDRICLFTVSDDGHLVAQDPAEVTTVEGAGPRHMVFHPNEQYAYCVNELNSSVDVWELKDPHGNIECVQTLDMMPENFSDTRWAADIHITPDGRHLYACDRTASLITVFSVSEDGSVLSKEGFQPTETQPRGFNVDHSGKYLIAAGQKSHHISVYEIVGEQGLLHEKGRYAVGQGPMWVVVNAH | 4.59 ± 0.99 h | 4.79 ± 0.47 h | 6.52 ± 0.2 h | 4.87 ± 0.15 h | 3.17 ± 0.23 h | 11.1 ± 2 h | 4.95 ± 0.27 h | 9.37 ± 2.2 h | 6.2 ± 2.5 h |  |  | 
MKRTKSIRHASFRKNWSARHLTPVALAVATVFMLAGCEKSDETVSLYQNADDCSAANPGKSAECTTAYNNALKEAERTAPKYATREDCVAEFGEGQCQQAPAQAGMAPENQAQAQQSSGSFWMPLMAGYMMGRLMGGGAGFAQQPLFSSKNPASPAYGKYTDATGKNYGAAQPGRTMTVPKTAMAPKPATTTTVTRGGFGESVAKQSTMQRSATGTSSRSMGG [P0ADT2] | 4.17 ± 0.3 h | 3.89 ± 0.12 h | 3.69 ± 0.096 h | 3.22 ± 0.56 h | 1.83 ± 0.4 h | 5.86 ± 0.6 h | 4.08 ± 0.88 h | 7.11 ± 0.26 h | 3.45 ± 0.38 h | 3.82 ± 0.98 h | 3.71 ± 0.29 h | 7.48 ± 0.2 h
MSVIETATVPLAQQQADALLNVKDLRVTFSTPDGDVTAVNDLNFSLRAGETLGIVGESGSGKSQTAFALMGLLAANGRIGGSATFNGREILNLPEHELNKLRAEQISMIFQDPMTSLNPYMRVGEQLMEVLMLHKNMSKAEAFEESVRMLDAVKMPEARKRMKMYPHEFSGGMRQRVMIAMALLCRPKLLIADEPTTALDVTVQAQIMTLLNELKREFNTAIIMITHDLVVVAGICDKVLVMYAGRTMEYGNARDVFYQPVHPYSIGLLNAVPRLDAEGETMLTIPGNPPNLLRLPKGCPFQPRCPHAMEICSSAPPLEEFTPGRLRACFKPVEELL | 5.7109 ± 0.0028 h | 5.53 ± 0.098 h | 4.81 ± 0.18 h | 5.34 ± 0.22 h | 2.84 ± 0.31 h | 11.4 ± 1.9 h | 5.29 ± 0.21 h | 11.4 ± 1.2 h | 5.715 ± 0.02 h | 5.379 ± 0.026 h | 5.49 ± 0.35 h | 11.6 ± 0.23 h
MQVSRRQFFKICAGGMAGTTAAALGFAPSVALAETRQYKLLRTRETRNTCTYCSVGCGLLMYSLGDGAKNAKASIFHIEGDPDHPVNRGALCPKGAGLVDFIHSESRLKFPEYRAPGSDKWQQISWEEAFDRIAKLMKEDRDANYIAQNAEGVTVNRWLSTGMLCASASSNETGYLTQKFSRALGMLAVDNQARVUHGPTVASLAPTFGRGAMTNHWVDIKNANLVVVMGGNAAEAHPVGFRWAMEAKIHNGAKLIVIDPRFTRTAAVADYYAPIRSGTDIAFLSGVLLYLLNNEKFNREYTEAYTNASLIVREDYGFEDGLFTGYDAEKRKYDKSSWTYELDENGFAKRDTTLQHPRCVWNLLKQHVSRYTPDVVENICGTPKDAFLKVCEYIAETSAHDKTASFLYALGWTQHSVGAQNIRTMAMIQLLLGNMGMAGGGVNALRGHSNIQGLTDLGLLSQSLPGYMTLPSEKQTDLQTYLTANTPKPLLEGQVNYWGNYPKFFVSMMKAFFGDKATAENSWGFDWLPKWDKGYDVLQYFEMMKEGKVNGYICQGFNPVASFPNKNKVIGCLSKLKFLVTIDPLNTETSNFWQNHGELNEVDSSKIQTEVFRLPSTCFAEENGSIVNSGRWLQWHWKGADAPGIALTDGEILSGIFLRLRKMYAEQGGANPDQVLNMTWNYAIPHEPSSEEVAMESNGKALADITDPATGAVIVKKGQQLSSFAQLRDDGTTSCGCWIFAGSWTPEGNQMARRDNADPSGLGNTLGWAWAWPLNRRILYNRASADPQGNPWDPKRQLLKWDGTKWTGWDIPDYSAAPPGSGVGPFIMQQEGMGRLFALDKMAEGPFPEHYEPFETPLGTNPLHPNVISNPAARIFKDDAEALGKADKFPYVGTTYRLTEHFHYWTKHALLNAILQPEQFVEIGESLANKLGIAQGDTVKVSSNRGYIKAKAVVTKRIRTLKANGKDIDTIGIPIHWGYEGVAKKGFIANTLTPFVGDANTQTPEFKSFLVNVEKV | 4.77 ± 0.55 h | 6.6 h | 5.502 ± 0.033 h | 4.72 h | > 4 h | 11.4 ± 0.86 h | 5.89 h | 10.4 ± 0.35 h | 4.79 ± 0.5 h | 5.155 ± 0.0061 h | 5.8 h | 8.459 ± 0.046 h
MLKRYLVLSVATAAFSLPSLVNAAQQNILSVHILNQQTGKPAADVTVTLEKKADNGWLQLNTAKTDKDGRIKALWPEQTATTGDYRVVFKTGDYFKKQNLESFFPEIPVEFHINKVNEHYHVPLLLSQYGYSTYRGS | 5.47 ± 0.54 h | 5.53 h | 5.8 ± 0.16 h |  | > 4 h | 7.94 ± 2 h | 5.83 ± 0.21 h | 8.97 ± 0.37 h | 4.42 ± 0.68 h | 5.28 ± 1.2 h |  | 8.8 ± 0.6 h
METNIVEVENFVQQSEERRGSAFTQEVKRYLERYPNTQYVDVLLTDLNGCFRGKRIPVSSLKKLEKGCYFPASVFAMDILGNVVEEAGLGQEMGEPDRTCVPVLGSLTPSAADPEFIGQMLLTMVDEDGAPFDVEPRNVLNRLWQQLRQRGLFPVVAVELEFYLLDRQRDAEGYLQPPCAPGTDDRNTQSQVYSVDNLNHFADVLNDIDELAQLQLIPADGAVAEASPGQFEINLYHTDNVLEACDDALALKRLVRLMAEKHKMHATFMAKPYEEHAGSGMHIHISMQNNRGENVLSDAEGEDSPLLKKMLAGMIDLMPSSMALLAPNVNSYRRFQPGMYVPTQASWGHNNRTVALRIPCGDRHNHRVEYRVAGADANPYLVMAAIFAGILHGLDNELPLQEEVEGNGLEQEGLPFPIRQSDALGEFIENDHLRRYLGERFCHVYHACKNDELLQFERLITETEIEWMLKNA | 2.89 ± 0.19 h | 0.535 ± 0.066 h |  | 0.507 h | 0.748 h | 0.976 h |  |  |  | 3.73 ± 1.2 h | 1.47 h | 
MKKIAFGCDHVGFILKHEIVAHLVERGVEVIDKGTWSSERTDYPHYASQVALAVAGGEVDGGILICGTGVGISIAANKFAGIRAVVCSEPYSAQLSRQHNDTNVLAFGSRVVGLELAKMIVDAWLGAQYEGGRHQQRVEAITAIEQRRN |  | 3.77 ± 0.19 h | 3.82 ± 0.13 h | 3.45 ± 0.1 h | 3.05 ± 0.37 h | 9.29 ± 1.4 h | 3.725 ± 0.033 h | 5.17 ± 1 h | 5.32 ± 0.18 h | 4.69 ± 0.15 h | 5.6 ± 0.41 h | 10.2 ± 0.91 h
MSEYRRYYIKGGTWFFTVNLRNRRSQLLTTQYQMLRHAIIKVKRDRPFEINAWVVLPEHMHCIWTLPEGDDDFSSRWREIKKQFTHACGLKNIWQPRFWEHAIRNTKDYRHHVDYIYINPVKHGWVKQVSDWPFSTFHRDVARGLYPIDWAGDVTDFSAGERIIS |  |  |  |  | 1.93 h |  |  |  |  | 5.68 h |  | 
